Experiment [1] addresses huCD3e (human, UniProt P07766 23-126). The experiment is described as follows: Octet primary screen, crude lysate. The method, then: Stability and affinity of the individually expressed molecules in the form of crude lysate was evaluated by Octet. […] The binding of these anti-CD3 molecules (CD3.227, CD3.228, CD3.229 and CD3.230) to human and cynomolgus CD3 was measured by Octet and the Tₘ was measured by Differential Scanning Fluorimetry. All variants were paired with an anti-PSMA VHH.

In experiment [2] the target is T1, huCD3e-mFc (human, UniProt P07766 23-126).
T1 construct: not shown: mFc, not described
The experiment is described as follows: Pool 3 screen, R3.

For experiment [3], the target named is T2, human CD3 (human, UniProt P07766 23-126). Nature of the experiment: Octet. (In general: BLI is a label-free optical method that tracks binding on a fibre tip over time.)
Experiment [4] deals with T1, huCD3e-mFc. Nature of the experiment: Pool 3 screen.
Experiment [5] addresses T1, huCD3e-mFc. Nature of the experiment: Pool 3 screen, R2.
The target in experiment [6] is T3, cyCD3e-Fc (cynomolgus, UniProt Q95LI5 22-117).
T3 construct: not shown: Fc, not described
T3 sequence (looked up): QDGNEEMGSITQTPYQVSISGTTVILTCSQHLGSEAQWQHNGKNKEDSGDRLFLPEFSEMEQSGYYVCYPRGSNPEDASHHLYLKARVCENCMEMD
Nature of the experiment: Octet, purified paTCE. As for the experimental part:
(§1) […] […] The binding of these anti-CD3 molecules (CD3.227, CD3.228, CD3.229 and CD3.230) to human and cynomolgus CD3 was measured by Octet and the Tₘ was measured by Differential Scanning Fluorimetry. All variants were paired with an anti-PSMA VHH.

Experiment [7] concerns the target T4, huCD3e-Fc (human, UniProt P07766 23-126).
T4 construct: not shown: Fc, not described
The experiment is described as follows: Octet, purified paTCE. The method, then: as §1

Experiment [8] deals with T5, human EGFR (human, UniProt P00533 25-645, limits assumed).
T5 construct: on HT-29 cells in the cytotoxicity assay; also called epidermal growth factor receptor
The experiment is described as follows: BLI, room temperature. As for the experimental part: Each construct was expressed in small-scale and purified. Thermal stability was determined by Differential Scanning Fluorimetry. Melting temperature (Tₘ) determined by Differential Scanning Fluorimetry experiments described herein were performed either in duplicate or triplicate using GloMelt™ dye and QuantStudio5™. GloMelt™ dye undergoes fluorescence enhancement upon binding to hydrophobic regions of denatured proteins. Therefore, the dye can be used to detect protein unfolding or measure thermal stability. GloMelt™ dye is optimized for detection in the SYBR® Green channel of qPCR instruments. The Differential Scanning Fluorimetry experiments were performed in 96-well plates with 10 μg protein/reaction (equal to 0.5 mg/mL final protein concentration), reaction buffer, and GloMelt™ 10× dye according to manufacturer's instructions. Fluorescence of 96-well plates was read and melt curve plots were generated in the QuantStudio5™ qPCR system. Binding affinity was analyzed with bio-layer interferometry at room temperature with human EGFR as the antigen.

In experiment [9] the target is T2, human CD3. The experiment is described as follows: method not stated.

The results in this text go back to patent US20260167728A1 (published 2026).

In general, Kd refers to the concentration at which binding is half-saturated. Read a high Kd as lower affinity. Usually koff stands for the first-order rate constant of dissociation. Read a high koff as fast dissociation. A word on the kon: it is the second-order rate constant of association.

T2 sequence (P07766 23-126 limits assumed): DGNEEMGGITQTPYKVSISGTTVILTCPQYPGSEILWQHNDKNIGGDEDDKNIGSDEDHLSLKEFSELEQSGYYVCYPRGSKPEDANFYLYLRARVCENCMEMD
huCD3e, sequence (P07766 23-126): as the sequence (P07766 23-126 limits assumed) above
T1 sequence (P07766 23-126): as the sequence (P07766 23-126 limits assumed) above
T4 sequence (P07766 23-126): as the sequence (P07766 23-126 limits assumed) above

B1: AC3471 (CD3.23, WT) (bispecific antibody, V domains shown)
VH: EVQLLESGGGIVQPGGSLKLSCAASGFTFNTYAMNWVRQAPGKGLEWVARIRSKYNNYATYYADSVKDRFTISRDDSKNTVYLQMNNLKTEDTAVYYCVRHENFGNSYVSWFAHWGQGTLVTVSS
VL: ELVVTQEPSLTVSPGGTVTLTCRSSNGAVTSSNYANWVQQKPGQAPRGLIGGTNKRAPGTPARFSGSLLGGKAALTLSGVQPEDEAVYYCALWYPNLWVFGGGTKLTVL
notes: Pool 2 format (remarks)
B1: binding in [1] was characterised by a dissociation constant (Kd) of 13.5 nM.

B2: AC3768 (CD3.23 control) (scFv, V domains shown)
VH: EVQLLESGGGIVQPGGSLKLSCAASGFTFNTYAMNWVRQAPGKGLEWVARIRSKYNNYATYYADSVKDRFTISRDDSKNTVYLQMNNLKTEDTAVYYCVRHENFGNSYVSWFAHWGQGTLVTVSS
VL: ELVVTQEPSLTVSPGGTVTLTCRSSNGAVTSSNYANWVQQKPGQAPRGLIGGTNKRAPGTPARFSGSLLGGKAALTLSGVQPEDEAVYYCALWYPNLWVFGGGTKLTVL
notes: Pool 3 format (remarks)
Take B2: the dissociation constant (Kd) in [2] stood at 5.6 nM; in [3], 4.67 nM; in experiment [4], 4.67 nM; in experiment [5], 8 nM.

B3: CD3.23 anti-CD3 scFv (scFv, V domains shown)
VH: EVQLLESGGGIVQPGGSLKLSCAASGFTFNTYAMNWVRQAPGKGLEWVARIRSKYNNYATYYADSVKDRFTISRDDSKNTVYLQMNNLKTEDTAVYYCVRHENFGNSYVSWFAHWGQGTLVTVSS
VL: ELVVTQEPSLTVSPGGTVTLTCRSSNGAVTSSNYANWVQQKPGQAPRGLIGGTNKRAPGTPARFSGSLLGGKAALTLSGVQPEDEAVYYCALWYPNLWVFGGGTKLTVL
notes: Parental domain
B3: in experiment [6], the dissociation constant Kd came out at 130 nM, the koff was 0.0312 s⁻¹ and the kon came out at 240000 M⁻¹ s⁻¹. In experiment [7], this molecule gave a dissociation constant Kd of 131 nM, a koff of 0.0289 s⁻¹ and a kon of 220000 M⁻¹ s⁻¹.

B4: AC2717 (CD3.23, WT) (bispecific antibody, V domains shown)
VH: EVQLLESGGGIVQPGGSLKLSCAASGFTFNTYAMNWVRQAPGKGLEWVARIRSKYNNYATYYADSVKDRFTISRDDSKNTVYLQMNNLKTEDTAVYYCVRHENFGNSYVSWFAHWGQGTLVTVSS
VL: ELVVTQEPSLTVSPGGTVTLTCRSSNGAVTSSNYANWVQQKPGQAPRGLIGGTNKRAPGTPARFSGSLLGGKAALTLSGVQPEDEAVYYCALWYPNLWVFGGGTKLTVL
notes: Pool 2 format (remarks); paired with an anti-PSMA VHH variant
B4 returned a Kd in experiment [1] of 12.9 nM.

B5: AC3682 (CD3.251) (bispecific antibody, V domains shown)
VH: EVQLVESGGGIVQPGGSLRLSCAASGFTFNTYAMNWVRQAPGKGLEWVGRIRSKRNNYATTYADSVKDRFTISRDDSKNTVYLQMNSLKTEDTAVYYCVRHENFGNSYVSWFAHWGQGTLVTVSS
VL: ELVVTQEPSLTVSPGGTVTLTCRSSNGAVTSSNYANWVQQKPGQAPRGLIGGTNKRAPGTPARFSGSLLGGKAALTLSGVQPEDEAVYYCALWYPNLWVFGGGTKLTVL
notes: Pool 2 format (remarks)
For B5, binding in experiment [1] was put at a Kd of 32.8 nM.

B6: AC3822 (CD3.318) (scFv, V domains shown)
VH: EVQLVESGGGIVQPGGSLRLSCAASGFTFSTYAMNWVRQAPGKGLEWVGRIRTKRNDYATYYADSVKGRFTISRDDSKNTLYLQMNSLKTEDTAVYYCVRHENFGNSYVSWFAHWGQGTLVTVSS
VL: ELVVTQEPSLTVSPGGTVTLTCRSSNGAVTSSNYANWVQQKPGQAPRGLIGGTNKRAPGTPARFSGSLLEGKAALTLSGVQPEDEAVYYCALWYPNLWVFGGGTKLTVL
notes: Pool 3 format (remarks)
Consider B6, for which the values for the dissociation constant (Kd) in [3], in experiment [4] and in experiment [5] were 5.38 nM, 5.38 nM and 5.7 nM, respectively.

B7: AC3796 (CD3.292) (scFv, V domains shown)
VH: EVQLVESGGGIVQPGGSLRLSCAASGFTFSTYAMNWVRQAPGKGLEWVGRIRTKRNNYATYYADSVKGRFTISRDDSKNTVYLQMNSLKTEDTAVYYCVRHENFGNSYVSWFAHWGQGTLVTVSS
VL: ELVVTQEPSLTVSPGGTVTLTCRSSNGAVTSSNYANWVQQKPGQAPRGLIGGTNKRAPGTPARFSGSLLGGKAALTLSGVQPEDEAVYYCALWYPNLWVFGGGTKLTVL
notes: Pool 3 format (remarks)
As for B7, the Kd in experiment [2] was 3 nM; in experiment [3] it was 3.89 nM; in experiment [4], 3.89 nM; in experiment [5], 4.1 nM.

B8: AC3799 (CD3.295) (scFv, V domains shown)
VH: EVQLVESGGGIVQPGGSLRLSCAASGFTFSTYAMNWVRQAPGKGLEWVGRIRTKRNNYATYYADSVKGRFTISRDDSKNTVYLQMNSLKTEDTAVYYCVRHENFGNSYVSWFAHWGQGTLVTVSS
VL: ELVVTQEPSLTVSPGGTVTLTCRSSNGAVTSSNYANWVQQKPGQAPRGLIGGTNKRAPGTPARFSGSLNGGKAALTLSGVQPEDEAVYYCALWYPNLWVFGGGTKLTVL
notes: Pool 3 format (remarks)
For B8, the equilibrium dissociation constant (Kd) stood at 3.11 nM in experiment [3], 3.11 nM in experiment [4] and 3.7 nM in [5].

B9: AC2909 (EGFR.61/CD3.23 paTCE) (bispecific antibody)
scFv 1: EIVLTQSPGTLSLSPGERATLSCQASQDISNYLNWYQQKPGQAPRLLIYDASNLETGIPDRFSGSGSGTDFTLTISRLEPEDFAVYYCQHFDHLPLAFGQGTKVEIKGATPPETGAETESPGETTGGSAESEPPGEGQVQLQESGPGLVKPSETLSLTCTVSGGSVSSGDYYWTWIRQPPGKGLEWIGHIYYSGNTNYNPSLKSRVTISVDTSKNQFSLKLSSVTAADTAVYYCARDRVTGAFDIWGQGTLVTVSS
scFv 2: ELVVTQEPSLTVSPGGTVTLTCRSSNGAVTSSNYANWVQQKPGQAPRGLIGGTNKRAPGTPARFSGSLLGGKAALTLSGVQPEDEAVYYCALWYPNLWVFGGGTKLTVLGATPPETGAETESPGETTGGSAESEPPGEGEVQLLESGGGIVQPGGSLKLSCAASGFTFNTYAMNWVRQAPGKGLEWVARIRSKYNNYATYYADSVKDRFTISRDDSKNTVYLQMNNLKTEDTAVYYCVRHENFGNSYVSWFAHWGQGTLVTVSS
notes: EGFR library format (remarks)
With B9, the Kd in experiment [8] is 2.4 nM; in experiment [9], approximately 203 nM.

B10: AC2885 (EGFR.37/CD3.23 paTCE) (bispecific antibody)
scFv 1: DIQMTQSPSSLSASVGDRVTITCQASQDISNYLNWYQQKPGKAPKLLIYDASNLETGVPSRFSGSGSGTDFTFTISSLQPEDIATYYCQHFDHLPLAFGQGTKVEIKGATPPETGAETESPGETTGGSAESEPPGEGQVQLQESGPGLVKPSETLSLTCTVSGGSVSSGDYYWTWIRQPPGKGLEWIGHIYYSGNTNYNPSLKSRVTISVDTSKNQFSLKLSSVTAADTAVYYCARDRVTGAFDIWGQGTLVTVSS
scFv 2: ELVVTQEPSLTVSPGGTVTLTCRSSNGAVTSSNYANWVQQKPGQAPRGLIGGTNKRAPGTPARFSGSLLGGKAALTLSGVQPEDEAVYYCALWYPNLWVFGGGTKLTVLGATPPETGAETESPGETTGGSAESEPPGEGEVQLLESGGGIVQPGGSLKLSCAASGFTFNTYAMNWVRQAPGKGLEWVARIRSKYNNYATYYADSVKDRFTISRDDSKNTVYLQMNNLKTEDTAVYYCVRHENFGNSYVSWFAHWGQGTLVTVSS
notes: EGFR library format (remarks)
B10: the Kd was found to be 2.3 nM in experiment [8], 15.4 nM in [4] and 203 nM in [9].

B11: AC2921 (EGFR.73/CD3.23 paTCE) (bispecific antibody)
scFv 1: EIVLTQSPATLSLSPGERATLSCQASQDISNYLNWYQQKPGQAPRLLIYDASNLETGIPARFSGSGSGTDFTLTISSLEPEDFAVYYCQHFDHLPLAFGQGTKVEIKGATPPETGAETESPGETTGGSAESEPPGEGQVQLQESGPGLVKPSETLSLTCTVSGGSVSSGDYYWTWIRQPPGKGLEWIGHIYYSGNTNYNPSLKSRVTISVDTSKNQFSLKLSSVTAADTAVYYCARDRVTGAFDIWGQGTLVTVSS
scFv 2: ELVVTQEPSLTVSPGGTVTLTCRSSNGAVTSSNYANWVQQKPGQAPRGLIGGTNKRAPGTPARFSGSLLGGKAALTLSGVQPEDEAVYYCALWYPNLWVFGGGTKLTVLGATPPETGAETESPGETTGGSAESEPPGEGEVQLLESGGGIVQPGGSLKLSCAASGFTFNTYAMNWVRQAPGKGLEWVARIRSKYNNYATYYADSVKDRFTISRDDSKNTVYLQMNNLKTEDTAVYYCVRHENFGNSYVSWFAHWGQGTLVTVSS
notes: EGFR library format (remarks)
B11: the results for the Kd in experiment [8] and in [9] were 2.45 nM and approximately 203 nM, respectively.

B12: AC2897 (EGFR.49/CD3.23 paTCE) (bispecific antibody)
scFv 1: DIQMTQSPSSLSASVGDRVTITCQASQDISNYLNWYQQKPGKAPKLLIYDASNLETGVPSRFSGSGSGTDFTLTISSLQPEDFATYYCQHFDHLPLAFGQGTKVEIKGATPPETGAETESPGETTGGSAESEPPGEGQVQLQESGPGLVKPSETLSLTCTVSGGSVSSGDYYWTWIRQPPGKGLEWIGHIYYSGNTNYNPSLKSRVTISVDTSKNQFSLKLSSVTAADTAVYYCARDRVTGAFDIWGQGTLVTVSS
scFv 2: ELVVTQEPSLTVSPGGTVTLTCRSSNGAVTSSNYANWVQQKPGQAPRGLIGGTNKRAPGTPARFSGSLLGGKAALTLSGVQPEDEAVYYCALWYPNLWVFGGGTKLTVLGATPPETGAETESPGETTGGSAESEPPGEGEVQLLESGGGIVQPGGSLKLSCAASGFTFNTYAMNWVRQAPGKGLEWVARIRSKYNNYATYYADSVKDRFTISRDDSKNTVYLQMNNLKTEDTAVYYCVRHENFGNSYVSWFAHWGQGTLVTVSS
notes: EGFR library format (remarks)
With B12, the results for the dissociation constant (Kd) in experiment [8] and in experiment [9] were 7.2 nM and approximately 203 nM, respectively.
